B1: F3′-1304 (bispecific antibody, part only; not given: Fc and unrelated binding arm, not shown: another chain or arm of the molecule; a dimerising Fc or GST; small tags and cut ends)
scFv: DIQMTQSPSSLSASVGDRVTITCHASQNINFWLSWYQQKPGKIPKLLIYEASNLHTGVPSRFSGSGSGTRFTLTISSLQPEDIATYYCQQSHSYPLTFGCGTKLEIKGGGGSGGGGSGGGGSGGGGSQLQLQESGPGLVKPSETLSLTCTVSGFSLTNYGLHWIRQPPGKCLEWIGVIWSGGKTDYNPSLKSRVTISKDTSKNQFSLKLSSVQAADTAVYYCAKYDYDDSLDYWGQGTLVTVSS
B2: Murine F3′-9F11 (bispecific antibody, part only; not given: format, linker, Fc, other arm, V domains shown, not shown: a dimerising Fc or GST)
VH: EVQLQESGGGLVQPGGSRKLSCAASGFTFNSFGMHWVRQAPEKGLEWVAFISSGSTSIYYANTVKGRFTISRDNPKNTLFLQMTSLRSEDTAMYYCARDGYPTGGAMDYWGQGTSVTVSS
VL: DIKMTQSPSSMYASLGERVTITCKASQDIYNYLSWFQLKPGKSPRPLIYRANILVSGVPSKFSGSGSGQDYSLTINSLEYEDLGIYYCLQFDAFPFTFGSGTKLEIK
B3: F3′-1292 (bispecific antibody, part only; not given: Fc and unrelated binding arm, not shown: another chain or arm of the molecule; a dimerising Fc or GST)
scFv: QLQLQESGPGLVKPSETLSLTCTVSGFSLTNYGLHWIRQPPGKCLEWIGVIWSGGKTDYNPSLKSRVTISKDTSKNQFSLKLSSVQANDTAVYYCAKYDYDDSLDYWGQGTLVTVSSGGGGSGGGGSGGGGSGGGGSDIQMTQSPSSLSASVGDRVTITCHASQNINFWLSWYQQKPGKIPKLLIYEASNLHTGVPSRFSGSGSGTRFTLTISSLQPEDIATYYCQQSHSYPLTFGCGTKLEIK
B4: F3′-1296 (bispecific antibody, part only; not given: Fc and unrelated binding arm, not shown: another chain or arm of the molecule; a dimerising Fc or GST)
scFv: QLQLQESGPGLVKPSETLSLTCTVSGFSLTNYGLHWIRQPPGKCLEWIGVIWSGGKTDYNPSLKSRVTISKDTSKNQFSLKLSSVQANDTAVYYCARYDYDDSLDYWGQGTLVTVSSGGGGSGGGGSGGGGSGGGGSDIQMTQSPSSLSASVGDRVTITCHASQNINFWLSWYQQKPGKIPKLLIYEASNLHTGVPSRFSGSGSGTRFTLTISSLQPEDIATYYCQQSHSYPLTFGCGTKLEIK
B5: F3′-1297 (bispecific antibody, part only; not given: Fc and unrelated binding arm, not shown: another chain or arm of the molecule; a dimerising Fc or GST; small tags and cut ends)
scFv: QLQLQESGPGLVKPSETLSLTCTVSGFSLTNYGLHWIRQPPGKCLEWIGVIWSGGKTDYNPSLKSRVTISKDTSKNQFSLKLSSVQANDTAVYYCAKYDYDDSLDYWGQGTLVTVSSGGGGSGGGGSGGGGSGGGGSDIQMTQSPSSLSASVGDRVTITCHASQNINFWLSWYQQKPGKAPKLLIYEASNLHTGVPSRFSGSGSGTRFTLTISSLQPEDIATYYCQQSHSYPLTFGCGTKLEIK
B6: F3′-1306 (bispecific antibody, part only; not given: Fc and unrelated binding arm, not shown: another chain or arm of the molecule; a dimerising Fc or GST; small tags and cut ends)
scFv: DIQMTQSPSSLSASVGDRVTITCHASQNINFWLSWYQQKPGKAPKLLIYEASNLHTGVPSRFSGSGSGTRFTLTISSLQPEDIATYYCQQSHSYPLTFGCGTKLEIKGGGGSGGGGSGGGGSGGGGSQLQLQESGPGLVKPSETLSLTCTVSGFSLTNYGLHWIRQPPGKCLEWIGVIWSGGKTDYNPSLKSRVTISKDTSKNQFSLKLSSVQANDTAVYYCAKYDYDDSLDYWGQGTLVTVSS
B7: 15A10 hybridoma supernatant antibody (antibody, from a related filing, V domains shown)
VH: EVQLQESGAELVRSGASIKLSCAASAFNIKDYFIHWVRQRPDQGLEWIGWIDPENDDTEYAPKFQDKATMTADTSSNTAYLQLSSLTSADTAVYYCNALWSRGGYFDYWGQGTTLTVSS
VL: EVLLTQSPAIIAASPGEKVTITCSARSSVSYMSWYQQKPGSSPKIWIYGISKLASGVPARFSGSGSGTYFSFTINNLEAEDVATYYCQQRSYYPFTFGSGTKLEIK
B8: AB0010 (bispecific antibody, part only; not given: constant domains, Fc, unrelated scFv, V domains shown, not shown: another chain or arm of the molecule; a dimerising Fc or GST)
VH: QLQLQESGPGLVKPSETLSLTCTVSGFSLTNYGLHWIRQPPGKGLEWIGVIWSGGKTDYNPSLKSRVTISKDTSKNQFSLKLSSVQAADTAVYYCAKYDYDDSLDYWGQGTLVTVSS
VL: DIQMTQSPSSLSASVGDRVTITCHASQNINFWLSWYQQKPGKAPKLLIYEASNLHTGVPSRFSGSGSGTRFTLTISSLQPEDIATYYCQQSHSYPLTFGGGTKLEIK
B9: AB0185 (bispecific antibody, part only; not given: Fc, unrelated binder arm, linkers, not shown: another chain or arm of the molecule; a dimerising Fc or GST; small tags and cut ends)
scFv: DIQMTQSPSSLSASVGDRVTITCKASQDIYNYLSWFQQKPGKAPKPLIYRANILVSGVPSRFSGSGSGQDYTFTISSLQPEDIATYYCLQFDAFPFTFGCGTKLEIKGGGGSGGGGSGGGGSGGGGSEVQLVESGGGVVQPGGSLRLSCAASGFTFNSFGMHWVRQAPGKCLEWVAFISSGSTSIYYANTVKGRFTISRDNSKNTLYLQMNSLRAEDTAVYYCARDGYPTGGAMDYWGQGTSVTVSS
B10: AB0186 (bispecific antibody, part only; not given: Fc, unrelated binder arm, linkers, not shown: another chain or arm of the molecule; a dimerising Fc or GST; small tags and cut ends)
scFv: DIQMTQSPSSLSASVGDRVTITCKASQDIYNYLSWFQQKPGKAPKPLIYRANILVSGVPSRFSGSGSGQDYTFTISSLQPEDIATYYCLQFDAFPFTFGCGTKLEIKGGGGSGGGGSGGGGSGGGGSEVQLVESGGGVVQPGGSLRLSCAASGFTFNAFGMHWVRQAPGKCLEWVAFISSGSTSIYYANTVKGRFTISRDNSKNTLYLQMNSLRAEDTAVYYCARDGYPTGGAMDYWGQGTSVTVSS
B11: AB0188 (bispecific antibody, part only; not given: Fc, unrelated binder arm, linkers, not shown: another chain or arm of the molecule; a dimerising Fc or GST; small tags and cut ends)
scFv: DIKMTQSPSSLSASVGDRVTITCKASQDIYNYLSWFQQKPGKAPKPLIYRANILVSGVPSRFSGSGSGQDYTLTISSLQPEDIATYYCLQFDAFPFTFGCGTKLEIKGGGGSGGGGSGGGGSGGGGSEVQLVESGGGVVQPGGSLRLSCAASGFTFNSFGMHWVRQAPGKCLEWVAFISSGSTSIYYANTVKGRFTISRDNSKNTLYLQMNSLRAEDTAVYYCARDGYPTGGAMDYWGQGTSVTVSS
B12: AB0189 (bispecific antibody, part only; not given: Fc, unrelated binder arm, linkers, not shown: another chain or arm of the molecule; a dimerising Fc or GST; small tags and cut ends)
scFv: DIKMTQSPSSLSASVGDRVTITCKASQDIYNYLSWFQQKPGKAPKPLIYRANILVSGVPSRFSGSGSGQDYTLTISSLQPEDIATYYCLQFDAFPFTFGCGTKLEIKGGGGSGGGGSGGGGSGGGGSEVQLVESGGGVVQPGGSLRLSCAASGFTFNAFGMHWVRQAPGKCLEWVAFISSGSTSIYYANTVKGRFTISRDNSKNTLYLQMNSLRAEDTAVYYCARDGYPTGGAMDYWGQGTSVTVSS
B13: AB0191 (bispecific antibody, part only; not given: Fc, unrelated binder arm, linkers, not shown: another chain or arm of the molecule; a dimerising Fc or GST; small tags and cut ends)
scFv: EVQLVESGGGVVQPGGSLRLSCAASGFTFNSFGMHWVRQAPGKCLEWVAFISSGSTSIYYANTVKGRFTISRDNSKNTLYLQMNSLRAEDTAVYYCARDGYPTGGAMDYWGQGTSVTVSSGGGGSGGGGSGGGGSGGGGSDIQMTQSPSSLSASVGDRVTITCKASQDIYNYLSWFQQKPGKAPKPLIYRANILVSGVPSRFSGSGSGQDYTFTISSLQPEDIATYYCLQFDAFPFTFGCGTKLEIK
B14: AB0192 (bispecific antibody, part only; not given: Fc, unrelated binder arm, linkers, not shown: another chain or arm of the molecule; a dimerising Fc or GST; small tags and cut ends)
scFv: EVQLVESGGGVVQPGGSLRLSCAASGFTFNAFGMHWVRQAPGKCLEWVAFISSGSTSIYYANTVKGRFTISRDNSKNTLYLQMNSLRAEDTAVYYCARDGYPTGGAMDYWGQGTSVTVSSGGGGSGGGGSGGGGSGGGGSDIQMTQSPSSLSASVGDRVTITCKASQDIYNYLSWFQQKPGKAPKPLIYRANILVSGVPSRFSGSGSGQDYTFTISSLQPEDIATYYCLQFDAFPFTFGCGTKLEIK
B15: AB0195 (bispecific antibody, part only; not given: Fc and unrelated binding arm, not shown: another chain or arm of the molecule; a dimerising Fc or GST)
scFv: EVQLVESGGGVVQPGGSLRLSCAASGFTFNAFGMHWVRQAPGKCLEWVAFISSGSTSIYYANTVKGRFTISRDNSKNTLYLQMNSLRAEDTAVYYCARDGYPTGGAMDYWGQGTSVTVSSGGGGSGGGGSGGGGSGGGGSDIKMTQSPSSLSASVGDRVTITCKASQDIYNYLSWFQQKPGKAPKPLIYRANILVSGVPSRFSGSGSGQDYTLTISSLQPEDIATYYCLQFDAFPFTFGCGTKLEIK
B16: 16B08 hybridoma supernatant antibody (antibody, from a related filing, V domains shown)
VH: EVQLQESGPGLVQPSQSLSITCTVSGFSLTNYGLHWVRQSPGKGLEWLGVIWSGGKTDYNTPFKSRLSISKDISKNQVFFKMNSLQPNDTAIYFCAKYDYDDSLDYWGQGTSVTVSS
VL: DIQMNQSPSSLSASLGDTIAITCHASQNINFWLSWYQQKPGNIPKLLIYEASNLHTGVPSRFSGSGSGTRFTLTISSLQPEDIATYYCQQSHSYPLTFGQGTKLEIK

Tests used:
[1] = biological target: hCLEC12A-His fusion protein (human) (UniProt Q5QGZ9); assay: SPR screening, semi-purified protein
[2] = biological target: human CLEC12A expressed on cells (human) (UniProt Q5QGZ9); assay: flow cytometry on RMA-hCLEC12A cells
[3] = biological target: De-sialylated hCLEC12A (human) (UniProt Q5QGZ9); assay: SPR, analyte de-sialylated hCLEC12A
[4] = biological target: De-glycosylated hCLEC12A (human) (UniProt Q5QGZ9); assay: SPR, analyte de-glycosylated hCLEC12A
[5] = biological target: hCLEC12A-His fusion protein (human) (UniProt Q5QGZ9); assay: SPR, analyte glycosylated hCLEC12A
[6] = biological target: cynomolgus CLEC12A expressed on RMA cells (cynomolgus monkey); assay: flow cytometry, RMA-cCLEC12A cells
[7] = biological target: hCLEC12A-His fusion protein (human) (UniProt Q5QGZ9); assay: SPR 37 C, hybridoma supernatant
[8] = biological target: human CLEC12A expressed on cells (human) (UniProt Q5QGZ9); assay: flow cytometry, RMA-hCLEC12A cells
[9] = biological target: human CLEC12A expressed on cells (human) (UniProt Q5QGZ9); assay: flow cytometry, U937 cells
[10] = biological target: human CLEC12A expressed on cells (human) (UniProt Q5QGZ9); assay: flow cytometry, HL60 cells
[11] = biological target: human CLEC12A expressed on cells (human) (UniProt Q5QGZ9); assay: flow cytometry, hCLEC12A+Ba/F3 cells

Sequence of De-glycosylated hCLEC12A (human) (Q5QGZ9 65-265 limits assumed): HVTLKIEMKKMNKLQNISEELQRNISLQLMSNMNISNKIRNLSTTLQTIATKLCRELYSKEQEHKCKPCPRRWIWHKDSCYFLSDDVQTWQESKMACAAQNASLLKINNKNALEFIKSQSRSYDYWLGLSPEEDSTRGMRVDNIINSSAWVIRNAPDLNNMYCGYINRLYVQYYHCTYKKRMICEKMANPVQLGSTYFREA
Sequence of hCLEC12A-His fusion protein (human) (Q5QGZ9 65-265 limits assumed): as above
Sequence of De-sialylated hCLEC12A (human) (Q5QGZ9 65-265 limits assumed): as above
Sequence of human CLEC12A expressed on cells (human) (Q5QGZ9 whole entry): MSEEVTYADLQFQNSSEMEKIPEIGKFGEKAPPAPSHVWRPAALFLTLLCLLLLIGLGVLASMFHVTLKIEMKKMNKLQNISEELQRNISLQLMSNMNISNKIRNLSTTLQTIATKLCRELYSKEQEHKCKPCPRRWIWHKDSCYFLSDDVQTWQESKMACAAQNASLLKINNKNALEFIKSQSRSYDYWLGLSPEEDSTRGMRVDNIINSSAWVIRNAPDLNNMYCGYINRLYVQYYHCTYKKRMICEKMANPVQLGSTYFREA
Sequence of cynomolgus CLEC12A expressed on RMA cells (cynomolgus monkey) (chain, as listed by the source): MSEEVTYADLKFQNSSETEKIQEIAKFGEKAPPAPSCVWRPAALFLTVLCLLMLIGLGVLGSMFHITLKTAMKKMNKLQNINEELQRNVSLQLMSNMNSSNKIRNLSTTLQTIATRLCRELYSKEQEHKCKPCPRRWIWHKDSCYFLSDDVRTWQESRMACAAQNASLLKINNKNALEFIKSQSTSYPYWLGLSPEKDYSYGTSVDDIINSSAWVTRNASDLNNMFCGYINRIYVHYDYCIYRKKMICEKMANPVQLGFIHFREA

| Binder | Kd [1] [nM] | koff [1] [s⁻¹] | kon [1] [M⁻¹ s⁻¹] | EC50 [10] [nM] | EC50 [11] [nM] | Max binding MFI [10] [MFI] | Max binding MFI [11] [MFI] | further results |
| --- | --- | --- | --- | --- | --- | --- | --- | --- |
| B1 | 2.7 | 0.0013 | 480000 |  |  |  |  | EC50 (read off the curve) [2]: 10 nM |
| B2 |  |  |  |  |  |  |  | Kd [3]: 0.62 nM; koff [3]: 0.00098 s⁻¹; kon [3]: 1.58e+06 M⁻¹ s⁻¹; Kd [4]: 0.34 nM; koff [4]: 0.000374 s⁻¹; kon [4]: 1.11e+06 M⁻¹ s⁻¹; Kd [5]: 0.96 nM; koff [5]: 0.00111 s⁻¹; kon [5]: 1.15e+06 M⁻¹ s⁻¹ |
| B3 | 3.22 | 0.0013 | 402000 |  |  |  |  |  |
| B4 | 1.34 | 0.00117 | 874000 |  |  |  |  |  |
| B5 | 2.79 | 0.00141 | 504000 |  |  |  |  |  |
| B6 | 5.16 | 0.0489 | 9.48e+06 |  |  |  |  |  |
| B7 |  |  |  |  |  |  |  | Cell Binding MFI [6]: 167 MFI; Kd [7]: 15.8 nM; koff [7]: 0.00223 s⁻¹; Cell Binding MFI [8]: 372 MFI; Cell Binding MFI [9]: 83.8 MFI |
| B8 |  |  |  | 4.2 | 6.13 |  |  | Max MFI [10]: 6060 MFI; Max MFI [11]: 54800 MFI |
| B9 | 1.4 | 0.00101 | 726000 | 0.4 | 0.7 | 372 | 8020 |  |
| B10 | 1.04 | 0.00117 | 1.12e+06 | 0.5 | 0.7 | 412 | 8160 |  |
| B11 | 1.58 | 0.000901 | 569000 |  |  |  |  |  |
| B12 | 1.21 | 0.00127 | 1.04e+06 | 0.7 | 1.3 | 420 | 8760 |  |
| B13 | 1.73 | 0.00126 | 728000 | 0.6 | 0.6 | 420 | 7940 |  |
| B14 | 1.26 | 0.00138 | 1.09e+06 | 0.6 | 0.7 | 503 | 10200 |  |
| B15 | 1.68 | 0.00129 | 766000 | 0.7 | 0.6 | 551 | 10800 |  |
| B16 |  |  |  |  |  |  |  | Cell Binding MFI [6]: 1130 MFI; Cell Binding MFI [8]: 819 MFI; Cell Binding MFI [9]: 44.1 MFI |

Reference: US20230220084A1
